Patent US20060269548A1 (published 2006)
Each block holds one binder with its values, some of them ahead of it.

Tests used:
[1] = target: T1, human VEGFR-2 immunoglobulin fusion protein (chimeric receptor protein immobilized on the biosensor chip) (human, UniProt P35968 20-764, limits assumed); test: BIAcore 2000 biosensor, receptor-Ig amine-coupled to CM5 chip, ligand injected
T1 construct: also called hVEGFR-2; not shown: immunoglobulin fusion part

human VEGFR-3-Ig = target: T2, human VEGFR-3-Ig (human, UniProt P35916 25-775); test: BIAcore 2000 biosensor, receptor-Ig on CM5 chip, ligand injected, 1:1 Langmuir global fit
T2 construct: extracellular domain; also called hVEGFR-3; soluble VEGFR-3; not shown: immunoglobulin fusion part
T2 sequence (looked up): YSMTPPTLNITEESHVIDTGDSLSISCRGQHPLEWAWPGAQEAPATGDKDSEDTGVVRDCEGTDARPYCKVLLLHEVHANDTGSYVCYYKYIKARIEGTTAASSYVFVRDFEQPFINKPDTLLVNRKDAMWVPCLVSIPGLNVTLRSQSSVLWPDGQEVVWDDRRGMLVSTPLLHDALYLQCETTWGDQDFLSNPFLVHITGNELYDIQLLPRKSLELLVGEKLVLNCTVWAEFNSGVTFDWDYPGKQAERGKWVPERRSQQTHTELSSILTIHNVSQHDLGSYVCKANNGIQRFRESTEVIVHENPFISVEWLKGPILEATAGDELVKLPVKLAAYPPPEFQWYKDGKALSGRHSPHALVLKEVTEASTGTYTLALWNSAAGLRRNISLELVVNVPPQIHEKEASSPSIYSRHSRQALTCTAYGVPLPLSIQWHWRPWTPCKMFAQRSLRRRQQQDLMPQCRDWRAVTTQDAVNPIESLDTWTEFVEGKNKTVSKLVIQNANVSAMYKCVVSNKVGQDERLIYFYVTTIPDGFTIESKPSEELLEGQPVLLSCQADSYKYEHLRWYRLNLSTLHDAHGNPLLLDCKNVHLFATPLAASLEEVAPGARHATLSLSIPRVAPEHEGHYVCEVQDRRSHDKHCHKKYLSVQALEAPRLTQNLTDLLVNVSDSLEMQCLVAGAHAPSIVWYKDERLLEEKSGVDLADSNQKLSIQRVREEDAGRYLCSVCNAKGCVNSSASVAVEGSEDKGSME

[2] = target: T1, human VEGFR-2 immunoglobulin fusion …; test: as above
Description: Chimeric receptor proteins were immobilized onto a carboxymethylated dextran surface. Growth factors were injected over the surface at a flow rate of 20 μl/min at the indicated concentrations.
Following immobilization, residual activated ester groups were blocked by treatment with 1 M ethanolamine hydrochloride pH 8.5 followed by washing with 10 mM diethylamine to remove non-covalently bound material. […] Samples were diluted in running buffer (10 mM HEPES pH 7.4, 150 mM NaCl, 3.4 mM EDTA, 0.005% Tween 20).

T1 sequence (P35968 20-764 limits assumed, change not shown): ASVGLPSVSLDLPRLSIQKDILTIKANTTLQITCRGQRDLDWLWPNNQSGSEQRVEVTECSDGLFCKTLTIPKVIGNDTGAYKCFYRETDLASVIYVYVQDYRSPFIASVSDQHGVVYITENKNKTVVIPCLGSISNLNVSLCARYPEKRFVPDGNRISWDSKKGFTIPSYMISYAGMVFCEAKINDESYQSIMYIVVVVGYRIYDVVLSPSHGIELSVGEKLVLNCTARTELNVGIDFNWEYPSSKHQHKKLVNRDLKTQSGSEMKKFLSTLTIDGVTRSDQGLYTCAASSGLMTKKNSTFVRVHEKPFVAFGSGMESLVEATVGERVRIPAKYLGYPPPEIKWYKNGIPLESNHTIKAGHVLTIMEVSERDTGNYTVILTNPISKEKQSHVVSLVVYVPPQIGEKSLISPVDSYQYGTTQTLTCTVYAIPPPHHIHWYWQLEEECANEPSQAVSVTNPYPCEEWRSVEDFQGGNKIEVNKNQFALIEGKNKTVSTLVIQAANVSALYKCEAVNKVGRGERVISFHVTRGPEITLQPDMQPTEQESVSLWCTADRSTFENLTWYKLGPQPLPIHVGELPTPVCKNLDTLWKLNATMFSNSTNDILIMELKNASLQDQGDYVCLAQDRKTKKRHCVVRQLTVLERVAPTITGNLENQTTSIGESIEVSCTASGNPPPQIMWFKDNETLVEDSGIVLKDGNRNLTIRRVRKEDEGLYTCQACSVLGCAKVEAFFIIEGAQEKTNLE

binding result [1]: no binding
Kd (human VEGFR-3-Ig): 115 nM
koff (human VEGFR-3-Ig): 0.0004 s⁻¹
kon (human VEGFR-3-Ig): 3500 M⁻¹ s⁻¹
B1: recombinant human VEGF-C156S (Thr103 to Ile225) (ligand)
chain: TEETIKFAAAHYNTEILKSIDNEWRKTQCMPREVCIDVGKEFGVATNTFFKPPSVSVYRCGGCCNSEGLQCMNTSTSYLSKTLFEITVPLSQGPKPVTISFANHTSCRCMSKLDVYRQVHSII
notes: also called hVEGF-C156S; VEGF-C56S

Kd [2]: 22 nM
koff [2]: 0.00123 s⁻¹
kon [2]: 55000 M⁻¹ s⁻¹
Kd (human VEGFR-3-Ig): 4.4 nM
koff (human VEGFR-3-Ig): 0.000605 s⁻¹
kon (human VEGFR-3-Ig): 136000 M⁻¹ s⁻¹
B2: recombinant human VEGF-C (Thr103 to Leu215) (ligand, UniProt P49767 103-215, looked up)
chain: TEETIKFAAAHYNTEILKSIDNEWRKTQCMPREVCIDVGKEFGVATNTFFKPPCVSVYRCGGCCNSEGLQCMNTSTSYLSKTLFEITVPLSQGPKPVTISFANHTSCRCMSKL
notes: range 103-215; Produced and purified as in Joukov et al. 1997; also called hVEGF-C; wild type VEGF-C
